Experimental data as given in the RNAGym collection of RNA variant scans (doi:10.1073/pnas.2313332121).

B1: TPR t1 (parent)
chain: GACCAAUCUGCCCUCAGAGCUCGAGAACAUCUUCGGAUGCAGAGGAGGCAGGCUUCGGUGGCGCGAUAGCGCCAACGUCCUCAACCUCCAAUGCAUCCCACCACAUGAUGAUGCCUGAAGAGCCUUGGUUUUUUG

Variants of: B1
Experiment: polymerase ribozyme fitness, log enrichment relative to wild type (log ratio); higher = more active; in vitro selection for triplet polymerase activity
How it was run: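 For each subunit of a heterodimeric triplet polymerase ribozyme, a mutant library was built by PCR and transcribed, then taken through a single in vitro selection round in triplicate. Selection involved annealing to a biotinylated primer, the partner subunit and triplets, incubation frozen at −7 °C, gel excision of extended constructs, capture on streptavidin beads and RT-PCR. Genotypes were retained after Illumina sequencing of inputs and outputs only with ≥10 input reads and ≥1 read in each output. Fitness is defined as the logarithm of a genotype's enrichment relative to wild-type enrichment, using inverse-variance-weighted averages across replicates, with the logarithm taken to base 2.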

Row | Variant | polymerase ribozyme fitness (log ratio)
1 | C4U C72A A100U | -1.48
2 | C4G U9G G23A G113C | -4.79
3 | A5U C13A C28U C49U C56U G120C G135U | -5.49
4 | A5U C64U C79U G110A A111G U130C | -0.201
5 | A6C C15U C34A G39C | -5.02
6 | A5U A91C U96G A121G | -0.932
7 | A5G G10A C72A A91U | -1.75
8 | A6C A18U | -2.13
9 | C4U C11G C49U G51A C80U C94G | -2.25
10 | A5C C62U C85U C123A | -1.09
11 | A5G C8U U54A A111U | -2.21
12 | C4U C8A C12U C79G | -1.25
13 | A5U C11G A29U | -3.66
14 | A5G C12A C73A | -0.594
15 | A5C G44U G77U | -2.37
16 | C4U A100U G117U | -4.99
17 | A5U G61U C124A | 1.19
18 | A5U A41C U55C U59C C82G G120C U125A | -2.81
19 | A5U G63C C85A C101A A118U | -2.94
20 | A5C G17C G44A A83U G120A U131A | -4.99
21 | A5U G60U | -0.228
22 | A5U G47A C124U U126A | 0.649
23 | C4G U9A C62G C89A C115A G117C | -5.76
24 | A5U C13U A16G G69C U92G C123A U132A | -2.65

Row | Variant | polymerase ribozyme fitness (log ratio)
25 | A5G G44C A74U U96G | -2.57
26 | A5G C15U G48U C104U C124A | -0.12
27 | A5U G47A | -1.21
28 | A5C U14A A46U | -4.39
29 | A5U A46U G47C A50G C53U C86A C115G | -5.37
30 | A5C G51A U78C G113U U133G | -6.24
31 | A5G C64G G69A A83U | -4.33
32 | A5G A6G G52A A83U | -2.69
33 | C4G G63U G120U G122U | -1.51
34 | C4U U38G U112A | -0.207
35 | C4U U14A | -2.88
36 | A5U G63C G117A | -3.54
37 | A6C C13U C53U C85U A105U C124A U126G | -3.62
38 | A5U C11G C56U | -0.378
39 | C4G U125G | 0.0157
40 | C4G U87A | -2.92
41 | A5C C73A | -0.312
42 | A5G G45A C104A | -2.92
43 | C4U C114A G128C | -4.42
44 | A5U A18U C94G A105G C123G | -6.51
45 | A6C C13A C88A | -3.16
46 | A5C C13U G44C G48U C115U | -3.4
47 | A5U C49A | -2.06
48 | A6C A16C G44C | -3.74

Row | Variant | polymerase ribozyme fitness (log ratio)
49 | C4G G69C G127A | -2.67
50 | A5G C53A G61A C101U | 0.0588
51 | C4U C40U | -1.42
52 | C4G U9G C13A C82U A111G | -2.04
53 | A5C G17A | -4.76
54 | A6C C15U | -1.98
55 | A5U G52C C73A C101U U106A U109C G135U | -5.42
56 | A5C C53A G71U C98U U112A G120U | -6.47
57 | A6C A108G U129G | -3.64
58 | A5U G10A C86U C102U G113A G128C | -5.52
59 | A5U U38A G42U C72U A74U C85A C101A | -5.64
60 | A5C C12G U14A G63U | -2.95
61 | C4U C73U | -0.492
62 | A5U C12U U21G A27C A46G A90G G120U | -2.99
63 | A5U C62A | -0.777
64 | C4G G10A | -1.4
65 | A5U C53U | -0.883
66 | A5G G60A G120U | 0.955
67 | A5C C8U C34A C79U C101G | -3.49
68 | C4U U112C | 1.38
69 | C4U G52C | -0.368
70 | A5U G61C C88A | -2.27
71 | C4G U129C | -1.99
72 | A5C A37U G69A C123A G128A | -4.31

Row | Variant | polymerase ribozyme fitness (log ratio)
73 | C4U G42A C114G | -3.21
74 | A5U A18C G57U | -2.21
75 | A5U G10A G36C G60C U78C C124U | -2.58
76 | A6C C11U G61U G113U | -4.99
77 | A6C C8A U87A | 0.391
78 | C4U G44A C73U A75U C94A | -2.78
79 | A5C C28A G47U C53G G93U | -7.47
80 | A5U G63C | -0.837
81 | A5C A24G A27G | -4.69
82 | A5U G52U U54A | -1.51
83 | C4U G58C C97G | -4.76
84 | A5C G107A | -5.67
85 | C4U G52C G63A G110A | -4.4
86 | C4U G35U C62U C98A C123G | -2.75
87 | A5C U9C C86U A100U G135U | -1.74
88 | A5U C11A C102A | -4.33
89 | A5U A68G C82G | -3.79
90 | A5U G71C C102G C114G C115G | -6.55
91 | A5U C114A | -1.69
92 | A5C A46U | -1.95
93 | A5G A18U G42U G52C G69C | -3.05
94 | A6C A41U A43G G57U U130G | -3.78
95 | C4U C15U | -1.62
96 | A5U C73A G122A U126G | -2.29

Row | Variant | polymerase ribozyme fitness (log ratio)
97 | A5U C70G | -2.83
98 | A5U C70A | -2.56
99 | C4G G44A G60C A111G | -3.78
100 | C4U C34G G57A U67C G69A C124U G127C | -6.05
101 | A5G C22A A119G | -4.13
102 | C4U C34A G71C A83G C98U U112A | -5.16
103 | A5G U9C U32C C40G G60U | -1.01
104 | A5U A66U A75G C76A C94A G120A U130G | -5.41
105 | C4G C89A | -2.63
106 | A6C C12A C53U U78C | -1.07
107 | C4G U78G C80U | -1.48
108 | A6C A29U C56U C94A U112G | -3.35
109 | A5G C82U | -0.0686
110 | A5C A37C G60C C79U C123A | -0.023
111 | C4G G10U A18G U59G A83C U87A | -4.53
112 | C4U A121U | 2.23
113 | A5C U9G C15G A43U A95U G110U | -4.99
114 | A5G G44A | -0.648
115 | A5C U14C U54A C88U C124A | 1.25
116 | A5G U87C | -0.474
117 | A5C A50C U96G | -1.64
118 | C4G U7G U55A C99U U112G U132C | -4.94
119 | A5C C73G C102A | -3.71
120 | A5U A43G G44A G52C G63C C124U G128U | -4.22

Row | Variant | polymerase ribozyme fitness (log ratio)
121 | A6C A24G A37U G48C G69C C79G C85G C101A C124U | -5.82
122 | A5U G47U A121U C124U | 0.495
123 | A5C A84G | -1.64
124 | C4U A18U | -2.35
125 | A5U A41U G120C | -1.47
126 | A5G A95U A121C G128A U130C | -0.519
127 | A5U C28G U96A C114U | -5.96
128 | A5G C13U G36C C62U C85A U112A G117U | -1.72
129 | C4G G69A | -2.97
130 | A5U C31U U112A | -3.97
131 | A5U A37G C72U | -0.735
132 | A5U U9G G47A G52U | -1.96
133 | A5U C11G C94U C104A G110C | -5.6
134 | A5G G60C | 0.0339
135 | C4G G39U | -3.24
136 | A5C C34U G63C U129G | -4.67
137 | C4U A41C | -1.67
138 | C4G U7G C13U G113A | -1.14
139 | A5C A37G C88A | -3.94
140 | C4U A37U C40U A83G | -2.17
141 | A6C A27G A121C | -0.0909
142 | A5U G44C G60U U96G G127A U131G | -3.9
143 | A5U A29U C94U | -2.08
144 | A5G A83U | -1.18

Row | Variant | polymerase ribozyme fitness (log ratio)
145 | A5C A118G | -0.499
146 | C4U G69C | -2.05
147 | C4U C11A C13U A16C U30G C49A C64G C102G U112G C115A | -7.83
148 | A5G C49U C73U | -0.864
149 | A5G C88G | -1.27
150 | A5U U59A U92A U129G | -3.92
151 | A5U U81A | -1.15
152 | C4U U9G U54C C76A | -0.732
153 | C4G G61C | -2.88
154 | A5G G45A G69U C104A | -1.05
155 | C4U C15U A43U A46U | -3.46
156 | C4U C70U | -0.878
157 | C4U C70A | -2.42
158 | A5C U7A C8A C80U | -1.09
159 | C4U C11A | -1.89
160 | C4U C8G C34G A46U U59G C62U C102U G113U A121C U131G | -6.55
161 | A5U A37G C79G | -1.97
162 | A5G G51A C86G | -2.82
163 | C4G U112A | -0.309
164 | C4G U112C | -0.0354
165 | A5C U112A C114A | -1.8
166 | A5U G10U G45C G51A A118U G120A | -2.81
167 | A5U A50U A105U A119G | -1.86
